Experimental data from patent publication EP4803150A2 (Lyvgen Biopharma Holdings Limited, dated 2026).
Changes are numbered by the printed parent chain.

B1: Ly2943 (multi-specific antibody)
chain 1: QVQLQQPGAELVKPGASVKMSCKASGYTFTSYNMHWVKQTPGRGLEWIGAIYPGNGDTSYNQKFKGKATLTADKSSSTAYMQLSSLTSEDSAVYYCARSTYYGGDWYFNVWGAGTTVTVSAASVAAPSVFIFPPSDEQLKSGTASVVCLLNNFYPREAKVQWKVDNALQSGNSQESVTEQDSKDSTYSLSSTLTLSKADYEKHKVYACEVTHQGLSSPVTKSFNRGECGGGGSGGGGSGGGGSGGGGSEVQLVESGGGLVQPGGSLRLSCAASGFTFSTYAMNWVRQAPGKGLEWVGRIRSKYNNYATYYADSVKGRFTISRDDSKNSLYLQMNSLKTEDTAVYYCVRHGNFGNSYVSWFAYWGQGTLVTVSSGGGGSDKTHTCPPCPAPELLGPSVFLFPPKPKDTLMISRTPEVTCVVVDVSHEDPEVKFNWYVDGVEVHNAKTKPREEQYNSTYRVVSVLTVLHQDWLNGKEYKCKVSNKALGAPIEKTISKAKGQPREPQVYTLPPSREEMTKNQVSLWCLVKGFYPSDIAVEWESNGQPENNYKTTPPVLDSDGSFFLYSKLTVDKSRWQQGNVFSCSVMHEALHNHYTQKSLSLSPGKGGGGSGGGGSGGGGSGGGGSQVQLVQSGAEVKKPGASVKVSCKASGYTFAGFEMHWVRQAPGQGLEWMGAIDPKTGGTDYNQKFKDRVTMTRDTSISTAYMELSRLRSDDTAVYYCARDLGYFDVWGQGTLVTVSS
chain 2: QVQLQQSGAELVRPGSSVKISCKASGYAFSSYWMNWVKQRPGQGLEWIGQIWPGDGDTNYNGKFKGKATLTADESSSTAYMQLSSLASEDSAVYFCARRETTTVGRYYYAMDYWGQGTTVTVSSASTKGPSVFPLAPSSKSTSGGTAALGCLVKDYFPEPVTVSWNSGALTSGVHTFPAVLQSSGLYSLSSVVTVPSSSLGTQTYICNVNHKPSNTKVDKKVEPKSCGGGGSGGGGSGGGGSGGGGSQAVVTQEPSLTVSPGGTVTLTCRSSTGAVTTSNYANWVQQKPGQAPRGLIGGTNKRAPWTPARFSGSLLGGKAALTITGAQAEDEADYYCALWYSNLWVFGGGTKLTVLGGGGSDKTHTCPPCPAPELLGPSVFLFPPKPKDTLMISRTPEVTCVVVDVSHEDPEVKFNWYVDGVEVHNAKTKPREEQYNSTYRVVSVLTVLHQDWLNGKEYKCKVSNKALGAPIEKTISKAKGQPREPQVYTLPPSREEMTKNQVSLSCAVKGFYPSDIAVEWESNGQPENNYKTTPPVLDSDGSFFLVSKLTVDKSRWQQGNVFSCSVMHEALHNRFTQKSLSLSPGKGGGGSGGGGSGGGGSGGGGSDIQMTQSPSSLSASVGDRVTITCRASQDIRSNLNWYQQKPGGAVKLLIYYTSRLHSGVPSRFSGSGSGTDYTLTISSLQPEDFATYFCQQSEKLPRTFGGGTKVEIR
chain 3: QIVLSQSPAILSASPGEKVTMTCRASSSVSYIHWFQQKPGSSPKPWIYATSNLASGVPVRFSGSGSGTSYSLTISRVEAEDAATYYCQQWTSNPPTFGGGTKLEIKSSASTKGPSVFPLAPSSKSTSGGTAALGCLVKDYFPEPVTVSWNSGALTSGVHTFPAVLQSSGLYSLSSVVTVPSSSLGTQTYICNVNHKPSNTKVDKKVEPKSC
chain 4: not shown
notes: CD19/CD20/CD3/CD137
B2: Ly2453 (multi-specific antibody)
chain 1: not shown
chain 2: QVQLVQSGAEVKKPGASVKVSCKASGYTFTDFWMSWVRQAPGQGLEWMGQIYPNTGTTHSNEKFKGRVTMTRDTSTSTVYMELSSLRSEDTAVYYCARSYHISTTPNWFAYWGQGTLVTVSSASTKGPSVFPLAPSSKSTSGGTAALGCLVKDYFPEPVTVSWNSGALTSGVHTFPAVLQSSGLYSLSSVVTVPSSSLGTQTYICNVNHKPSNTKVDKKVEPKSCGGGGSGGGGSGGGGSGGGGSDIQMTQSPSSVSASVGDRVTITCRASQGIYSWLAWYQQKPGKAPNLLIYTASTLQSGVPSRFSGSGSGTDFTLTISSLQPEDFATYYCQQANIFPLTFGGGTKVEIKGGGGSDKTHTCPPCPAPEAAGPSVFLFPPKPKDTLMISRTPEVTCVVVDVSHEDPEVKFNWYVDGVEVHNAKTKPREEQYNSTYRVVSVLTVLHQDWLNGKEYKCKVSNKALPAPIEKTISKAKGQPREPQVYTLPPSREEMTKNQVSLSCAVKGFYPSDIAVEWESNGQPENNYKTTPPVLDSDGSFFLVSKLTVDKSRWQQGNVFSCSVMHEALHNRFTQKSLSLSPG
chain 3: DIQMTQSPSSLSASVGDRVTITCKASQNVYKKLEWYQQKPGKVPKVLIYHTNILQTGVPSRFSGSGSGTDYTLTISSLQPEDVATYYCYQWNSGPTFGGGTKVEIKRTVAAPSVFIFPPSDEQLKSGTASVVCLLNNFYPREAKVQWKVDNALQSGNSQESVTEQDSKDSTYSLSSTLTLSKADYEKHKVYACEVTHQGLSSPVTKSFNRGEC
notes: PD-L1/CD40
B3: Ly2454 (multi-specific antibody, human IgG1, kappa)
chain 1: not shown
chain 2: QVQLVQSGAEVKKPGASVKVSCKASGYTFTDFWMSWVRQAPGQGLEWMGQIYPNTGTTHSNEKFKGRVTMTRDTSTSTVYMELSSLRSEDTAVYYCARSYHISTTPNWFAYWGQGTLVTVSSASTKGPSVFPLAPSSKSTSGGTAALGCLVKDYFPEPVTVSWNSGALTSGVHTFPAVLQSSGLYSLSSVVTVPSSSLGTQTYICNVNHKPSNTKVDKKVEPKSCDKTHTCPPCPAPEAAGPSVFLFPPKPKDTLMISRTPEVTCVVVDVSHEDPEVKFNWYVDGVEVHNAKTKPREEQYNSTYRVVSVLTVLHQDWLNGKEYKCKVSNKALPAPIEKTISKAKGQPREPQVYTLPPSREEMTKNQVSLSCAVKGFYPSDIAVEWESNGQPENNYKTTPPVLDSDGSFFLVSKLTVDKSRWQQGNVFSCSVMHEALHNRFTQKSLSLSPGGGGGSGGGGSGGGGSGGGGSDIQMTQSPSSVSASVGDRVTITCRASQGIYSWLAWYQQKPGKAPNLLIYTASTLQSGVPSRFSGSGSGTDFTLTISSLQPEDFATYYCQQANIFPLTFGGGTKVEIK
chain 3: B2 chain 3
notes: PD-L1/CD40
B4: Ly2802 (multi-specific antibody)
chain 1: QVQLQQSGAELVRPGSSVKISCKASGYAFSSYWMNWVKQRPGQGLEWIGQIWPGDGDTNYNGKFKGKATLTADESSSTAYMQLSSLASEDSAVYFCARRETTTVGRYYYAMDYWGQGTTVTVSSASVAAPSVFIFPPSDEQLKSGTASVVCLLNNFYPREAKVQWKVDNALQSGNSQESVTEQDSKDSTYSLSSTLTLSKADYEKHKVYACEVTHQGLSSPVTKSFNRGECGGGGSGGGGSGGGGSGGGGSEVQLVESGGGLVQPGGSLRLSCAASGFTFSTYAMNWVRQAPGKGLEWVGRIRSKYNNYATYYADSVKGRFTISRDDSKNSLYLQMNSLKTEDTAVYYCVRHGNFGNSYVSWFAYWGQGTLVTVSSGGGGSDKTHTCPPCPAPELLGPSVFLFPPKPKDTLMISRTPEVTCVVVDVSHEDPEVKFNWYVDGVEVHNAKTKPREEQYNSTYRVVSVLTVLHQDWLNGKEYKCKVSNKALGAPIEKTISKAKGQPREPQVYTLPPSREEMTKNQVSLWCLVKGFYPSDIAVEWESNGQPENNYKTTPPVLDSDGSFFLYSKLTVDKSRWQQGNVFSCSVMHEALHNHYTQKSLSLSPGKGGGGSGGGGSGGGGSGGGGSQVQLVQSGAEVKKPGASVKVSCKASGYTFAGFEMHWVRQAPGQGLEWMGAIDPKTGGTDYNQKFKDRVTMTRDTSISTAYMELSRLRSDDTAVYYCARDLGYFDVWGQGTLVTVSS
chain 2: QVQLQQPGAELVKPGASVKMSCKASGYTFTSYNMHWVKQTPGRGLEWIGAIYPGNGDTSYNQKFKGKATLTADKSSSTAYMQLSSLTSEDSAVYYCARSTYYGGDWYFNVWGAGTTVTVSAASTKGPSVFPLAPSSKSTSGGTAALGCLVKDYFPEPVTVSWNSGALTSGVHTFPAVLQSSGLYSLSSVVTVPSSSLGTQTYICNVNHKPSNTKVDKKVEPKSCGGGGSGGGGSGGGGSGGGGSQAVVTQEPSLTVSPGGTVTLTCRSSTGAVTTSNYANWVQQKPGQAPRGLIGGTNKRAPWTPARFSGSLLGGKAALTITGAQAEDEADYYCALWYSNLWVFGGGTKLTVLGGGGSDKTHTCPPCPAPELLGPSVFLFPPKPKDTLMISRTPEVTCVVVDVSHEDPEVKFNWYVDGVEVHNAKTKPREEQYNSTYRVVSVLTVLHQDWLNGKEYKCKVSNKALGAPIEKTISKAKGQPREPQVYTLPPSREEMTKNQVSLSCAVKGFYPSDIAVEWESNGQPENNYKTTPPVLDSDGSFFLVSKLTVDKSRWQQGNVFSCSVMHEALHNHYTQKSLSLSPGKGGGGSGGGGSGGGGSGGGGSDIQMTQSPSSLSASVGDRVTITCRASQDIRSNLNWYQQKPGGAVKLLIYYTSRLHSGVPSRFSGSGSGTDYTLTISSLQPEDFATYFCQQSEKLPRTFGGGTKVEIR
chain 3: DIQLTQSPASLAVSLGQRATISCKASQSVDYDGDSYLNWYQQIPGQPPKLLIYDASNLVSGIPPRFSGSGSGTDFTLNIHPVEKVDAATYHCQQSTEDPWTFGGGTKLEIKSSASTKGPSVFPLAPSSKSTSGGTAALGCLVKDYFPEPVTVSWNSGALTSGVHTFPAVLQSSGLYSLSSVVTVPSSSLGTQTYICNVNHKPSNTKVDKKVEPKSC
chain 4: QIVLSQSPAILSASPGEKVTMTCRASSSVSYIHWFQQKPGSSPKPWIYATSNLASGVPVRFSGSGSGTSYSLTISRVEAEDAATYYCQQWTSNPPTFGGGTKLEIKRTVAAPSVFIFPPSDEQLKSGTASVVCLLNNFYPREAKVQWKVDNALQSGNSQESVTEQDSKDSTYSLSSTLTLSKADYEKHKVYACEVTHQGLSSPVTKSFNRGEC
notes: CD19/CD20/CD3/CD137
B5: Ly2944 (multi-specific antibody)
chain 1: B4 chain 1
chain 2: B4 chain 2 with H572R, Y573F
chain 3: B4 chain 3
chain 4: B4 chain 4
notes: CD19/CD20/CD3/CD137

What was measured:
CD19 = molecular target: T1, CD19 (human, UniProt P15391 20-556); test: CHO cells overexpressing CD19, graded
T1 construct: whole, on cells
T1 sequence (looked up): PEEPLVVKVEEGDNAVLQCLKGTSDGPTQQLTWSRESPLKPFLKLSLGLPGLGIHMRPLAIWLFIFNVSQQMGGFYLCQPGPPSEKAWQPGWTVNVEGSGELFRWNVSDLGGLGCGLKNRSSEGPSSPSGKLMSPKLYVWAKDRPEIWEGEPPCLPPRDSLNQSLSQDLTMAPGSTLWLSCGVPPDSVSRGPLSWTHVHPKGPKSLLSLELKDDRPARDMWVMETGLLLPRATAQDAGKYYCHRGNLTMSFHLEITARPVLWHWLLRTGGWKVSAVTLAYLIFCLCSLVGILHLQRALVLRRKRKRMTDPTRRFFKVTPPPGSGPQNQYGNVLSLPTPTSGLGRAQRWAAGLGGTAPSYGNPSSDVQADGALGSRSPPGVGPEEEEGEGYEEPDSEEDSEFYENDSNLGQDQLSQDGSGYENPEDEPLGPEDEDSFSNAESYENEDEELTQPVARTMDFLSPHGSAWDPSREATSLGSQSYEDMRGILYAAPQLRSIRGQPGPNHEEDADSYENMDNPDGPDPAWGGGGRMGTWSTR

CD137 = molecular target: T2, CD137 (human, UniProt Q07011 24-186); test: FCM or ELISA, graded
T2 construct: Whole on GS-H2-huCD137 reporter cells in the reporter assays; also called 4-1BB

CD40 = molecular target: T3, CD40 (human, UniProt P25942 21-193); test: FCM or ELISA, graded
T3 construct: Whole on GS-H2-huCD40 reporter cells in the reporter assays
T3 sequence (P25942 21-193 limits assumed): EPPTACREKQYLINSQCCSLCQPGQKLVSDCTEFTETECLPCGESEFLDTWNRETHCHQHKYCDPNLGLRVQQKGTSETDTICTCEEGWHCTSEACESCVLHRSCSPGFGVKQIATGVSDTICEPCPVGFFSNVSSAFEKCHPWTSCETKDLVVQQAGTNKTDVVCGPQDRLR

| Binder | binding result (CD19) | binding result (CD137) | binding result (CD40) |
| --- | --- | --- | --- |
| B1 | binds | binds | – |
| B2 | – | – | binds |
| B3 | – | – | binds |
| B4 | binds | binds | – |
| B5 | binds | binds | – |
